Measurements reported in article PMC12468279, “VEGF-VEGFR Signaling Mechanism Directs the Migration of Newborn Hemocytes from the Hematopoietic Site of Oyster Crassostrea gigas” (Cells, 2025).

Biological target: T1, recombinant PDGF domain of CgVEGF with a GST tag (rCgVEGF) (Crassostrea gigas, biotin (biotinylated; site not stated))
T1 chain: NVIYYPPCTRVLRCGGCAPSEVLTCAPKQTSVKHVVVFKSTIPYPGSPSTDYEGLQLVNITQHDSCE
Assay: BLI; Octet K2 (ForteBio); biotinylated rCgVEGF immobilised on streptavidin biosensors; rCgVEGFR in solution at 1150, 1125, 843.75, 632.81 and 474.61 ug/mL; global fit to a 1:1 binding model; rTrx as control analyte
Conditions: both partners purified

B1: recombinant extracellular domain of CgVEGFR with a Trx tag (rCgVEGFR) (domain or fragment)
chain: QLVVVEETDCLKRPCRNGGSCDDIDGDGNFTCGCLPQWSGHFCELDTNECLNPPCEHGGTCTNSHGGYFCACTEIWTGKNCEEFKRVTIVDPKPTMEIYPERERVDSENGSIYTSSGDIVLNSGENFTIECFGDYPIKLTFKSDRVAEAPDYLGMDIIRRPIANMSQNARAFGVIYLVSNPTYKYTGEYVCQYTENSLHTSKYIYIRDEDNLFLEKNKYPGVPIFKNSYLFEPLILPCHVSDPEADVKLLTNWGTEVQLPDSPITYDPKTGFLIEFPSYSFVGPFRCAASVNNGMMQTISYYVTFNVEYKPSPTLLPLGDLEIVLGEDFELRCQVTVPLSVQSVSIQWMYSSNENNVSLPISALMIAPGQRSDRVRFTRPVEDTSMASDKSKTYFSNLTVMNGMKMDQGRYTCNVTTGRSQSTAVSKNVILVGDGLLEIQQCKKGQEIADFRGNWTVITQEQQIGVQISCLIKSMPYPKVTWYFKGEELNFKNSTVSQRYNPTMLNTTRTLTNISLSIMLPGKEQVGLYEIIVEAGTKREYAHFQLVYQYKPVVLIPAINKDVPYLLPNTRYNVRALVSAVPPATSQGWLWQPCGELPSCKQNSNSWRNVTSDNYQRFNQSGHLKYYATNSKGTGEYVMKIKVAEYETGLGIHIDQEKPSIIQTFPLHVTCTATKWEYSNVKVVFWGETDSYWRDVNIQNGTTLLSHNTSLSWISELRIENFAPENVGLYGCEVDISSNSSKGHLSTGDALRVQMISLEKPVFTKNTLTDSVVETNMGHSYHVMDCSARGVPAPSIQWFKDGQLLNFTSEFLGLSLSDDNTSLTINKTDVVHSGIYVCEVENMNGVIYKNVTLQIKSSLQSQKLKTKVEKGT
Kd: 879 nM
